Patent publication US20260102475A1

Legend:
[1] = biological target: IgG in human serum (serum pool n=100; pre-dose patient serum)
[2] = biological target: polyclonal IgG (substrate spiked into post-dose sera)

B1: imlifidase (IdeS, Immunoglobulin G-degrading enzyme of S. pyogenes) (protein)
chain: DSFSANQEIRYSEVTPYHVTSVWTKGVTPPANFTQGEDVFHAPYVANQGWYDITKTFNGKDDLLCGAATAGNMLHWWFDQNKDQIKRYLEEHPEKQKINFNGEQMFDVKEAIDTKNHQLDSKLFEYFKEKAFPYLSTKHLGVFPDHVIDMFINGYRLSLTNHGPTPVKEGSKDPRGGIFDAVFTRGDQSKLLTSRHDFKEKNLKEISDLIKKELTEGKALGLSHTYANVRINHVINLWGADFDSNGNLKAIYVTDSDSNASIGMKKYFVGVNSAGKVAISAKEIKEDNIGAQVLGLFTLSTGQDSWNQTN
[1]
  cleavage of IgG in serum, SDS-PAGE: a concentration of around 2 µg/mL imlifidase was needed to start the cleavage in serum and concentrations below this did not result in any cleavage despite prolonged incubation
[2]
  degradation of substrate spiked into sera collected after imlifidase dosing: When polyclonal IgG was used as substrate, no degradation was seen in samples collected from 48 hours after dosing and forward

B2: N240 (IdeS/IdeZ hybrid IgG cysteine protease) (protein)
chain: DDYQRNATEAYAKEVPHQITSVWTKGVTPPEQFTQGEDVIHAPYLAHQGWYDITKAFNGKDDLLCGAATAGNMLHWWFDQNKTEIEAYLSKHPEKQKIIFRNQELFDLKAAIDTKDSQTNSQLFNYFRDKAFPNLSARQLGVMPDLVLDMFINGYYLNVFKTQSTDVNRPYQDKDKRGGIFDAVFTRGNQTTLLTARHDLKNKGLNDISTIIKQELTEGRALALSHTYANVSISHVINLWGADFNAEGNLEAIYVTDSDANASIGMKKYFVGINAHGHVAISAKKIEGENIGAQVLGLFTLSSGKDIWQKLS
[1]
  cleavage of IgG in pre-dose patient serum, SDS-PAGE and SAB-HLA: N240 showed similar cleavage properties to imlifidase
